Measurements reported in patent US20070161078A1.

Key:
[1] = target: MBP.NS1 H5N1B (ESEV) (influenza A H5N1) (UniProt Q6DP28); assay: G assay titration
[2] = target: MBP.NS1 H5N1B (ESEV) (influenza A H5N1) (UniProt Q6DP28); assay: direct binding assay titration

For “INADL d8 (from UniProt Q8NI35 1431-1525)”, the EC50 [1] was 1.8 µg/mL and the EC50 [2] was 6.1 µg/mL.
Substance “MAST2 d1 (from UniProt Q6P0Q8 1098-1197)” has an EC50 [1] of 0.9 µg/mL.
Magi3 d1 (from UniProt Q5TCQ9 18-106) gave an EC50 [1] of 0.9 µg/mL and an EC50 [2] of 5 µg/mL.
With “NeDLG d1,2 (from UniProt Q92796 124-316)” the EC50 [1] was 0.2 µg/mL and the EC50 [2] was 0.8 µg/mL.
